Values of other authors, collected in publication PMC7538161.

Molecular target: CaMKII calmodulin-binding element peptide (Peptide A) calmodulin-binding element peptide (Homo sapiens) (UniProt Q9UQM7)
Sequence (Q9UQM7 290-309): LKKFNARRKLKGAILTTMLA

CaMKII hub hub domain, sequence (Q9UQM7 345-475): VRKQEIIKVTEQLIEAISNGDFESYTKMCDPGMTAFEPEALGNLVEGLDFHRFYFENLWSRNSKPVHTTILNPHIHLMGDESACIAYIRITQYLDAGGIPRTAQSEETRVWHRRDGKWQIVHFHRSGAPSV

Substance: CaMKII hub hub domain (from UniProt Q9UQM7)
- Kd: 90 µM
